PMC9682848

Molecular target: lamprey serum spherical lectin (LSSL), native, from lamprey serum (Lampetra japonica (endogenous in lamprey serum))
Assay: cryo-EM structure; native LSSL purified from serum, 2 μg/μL, vitrified; Titan Krios 300 kV; RELION 3.1

stoichiometry N: 3
Substance: lamprey serum spherical lectin (LSSL), native, from lamprey serum (natural protein)
